Data: patent US12099068B2, “Biomarkers for graft-versus-host disease” (Incyte Corporation, priority 2018, dated 2024)

B1: BACH1 (protein, UniProt O14867 1-736, looked up)
Transcription regulator …: MSLSENSVFAYESSVHSTNVLLSLNDQRKKDVLCDVTIFVEGQRFRAHRSVLAACSSYFHSRIVGQADGELNITLPEEVTVKGFEPLIQFAYTAKLILSKENVDEVCKCVEFLSVHNIEESCFQFLKFKFLDSTADQQECPRKKCFSSHCQKTDLKLSLLDQRDLETDEVEEFLENKNVQTPQCKLRRYQGNAKASPPLQDSASQTYESMCLEKDAALALPSLCPKYRKFQKAFGTDRVRTGESSVKDIHASVQPNERSENECLGGVPECRDLQVMLKCDESKLAMEPEETKKDPASQCPTEKSEVTPFPHNSSIDPHGLYSLSLLHTYDQYGDLNFAGMQNTTVLTEKPLSGTDVQEKTFGESQDLPLKSDLGTREDSSVASSDRSSVEREVAEHLAKGFWSDICSTDTPCQMQLSPAVAKDGSEQISQKRSECPWLGIRISESPEPGQRTFTTLSSVNCPFISTLSTEGCSSNLEIGNDDYVSEPQQEPCPYACVISLGDDSETDTEGDSESCSAREQECEVKLPFNAQRIISLSRNDFQSLLKMHKLTPEQLDCIHDIRRRSKNRIAAQRCRKRKLDCIQNLESEIEKLQSEKESLLKERDHILSTLGETKQNLTGLCQKVCKEAALSQEQIQILAKYSAADCPLSFLISEKDKSTPDGELALPSIFSLSDRPPAVLPPCARGNSEPGYARGQESQQMSTATSEQAGPAEQCRQSGGISDFCQQMTDKCTTDE
B2: PAM (protein, UniProt P19021 31-973, looked up)
Peptidyl-glycine …: FKETTRPFSNECLGTTRPVVPIDSSDFALDIRMPGVTPKQSDTYFCMSMRIPVDEEAFVIDFKPRASMDTVHHMLLFGCNMPSSTGSYWFCDEGTCTDKANILYAWARNAPPTRLPKGVGFRVGGETGSKYFVLQVHYGDISAFRDNNKDCSGVSLHLTRLPQPLIAGMYLMMSVDTVIPAGEKVVNSDISCHYKNYPMHVFAYRVHTHHLGKVVSGYRVRNGQWTLIGRQSPQLPQAFYPVGHPVDVSFGDLLAARCVFTGEGRTEATHIGGTSSDEMCNLYIMYYMEAKHAVSFMTCTQNVAPDMFRTIPPEANIPIPVKSDMVMMHEHHKETEYKDKIPLLQQPKREEEEVLDQGDFYSLLSKLLGEREDVVHVHKYNPTEKAESESDLVAEIANVVQKKDLGRSDAREGAEHERGNAILVRDRIHKFHRLVSTLRPPESRVFSLQQPPPGEGTWEPEHTGDFHMEEALDWPGVYLLPGQVSGVALDPKNNLVIFHRGDHVWDGNSFDSKFVYQQIGLGPIEEDTILVIDPNNAAVLQSSGKNLFYLPHGLSIDKDGNYWVTDVALHQVFKLDPNNKEGPVLILGRSMQPGSDQNHFCQPTDVAVDPGTGAIYVSDGYCNSRIVQFSPSGKFITQWGEESSGSSPLPGQFTVPHSLALVPLLGQLCVADRENGRIQCFKTDTKEFVREIKHSSFGRNVFAISYIPGLLFAVNGKPHFGDQEPVQGFVMNFSNGEIIDIFKPVRKHFDMPHDIVASEDGTVYIGDAHTNTVWKFTLTEKLEHRSVKKAGIEVQEIKEAEAVVETKMENKPTSSELQKMQEKQKLIKEPGSGVPVVLITTLLVIPVVVLLAIAIFIRWKKSRAFGDSEHKLETSSGRVLGRFRGKGSGGLNLGNFFASRKGYSRKGFDRLSTEGSDQEKEDDGSESEEEYSAPLPALAPSSS
B3: TXLNA (protein, UniProt P40222 1-546, looked up)
Alpha-taxilin: MKNQDKKNGAAKQSNPKSSPGQPEAGPEGAQERPSQAAPAVEAEGPGSSQAPRKPEGAQARTAQSGALRDVSEELSRQLEDILSTYCVDNNQGGPGEDGAQGEPAEPEDAEKSRTYVARNGEPEPTPVVNGEKEPSKGDPNTEEIRQSDEVGDRDHRRPQEKKKAKGLGKEITLLMQTLNTLSTPEEKLAALCKKYAELLEEHRNSQKQMKLLQKKQSQLVQEKDHLRGEHSKAVLARSKLESLCRELQRHNRSLKEEGVQRAREEEEKRKEVTSHFQVTLNDIQLQMEQHNERNSKLRQENMELAERLKKLIEQYELREEHIDKVFKHKDLQQQLVDAKLQQAQEMLKEAEERHQREKDFLLKEAVESQRMCELMKQQETHLKQQLALYTEKFEEFQNTLSKSSEVFTTFKQEMEKMTKKIKKLEKETTMYRSRWESSNKALLEMAEEKTVRDKELEGLQVKIQRLEKLCRALQTERNDLNKRVQDLSAGGQGSLTDSGPERRPEGPGAQAPSSPRVTEAPCYPGAPSTEASGQTGPQEPTSARA
B4: NFKBIE (protein, UniProt O00221 1-500, looked up)
NF-kappa-B inhibitor epsilon: MNQRRSESRPGNHRLQAYAEPGKGDSGGAGPLSGSARRGRGGGGAIRVRRPCWSGGAGRGGGPAWAVRLPTVTAGWTWPALRTLSSLRAGPSEPHSPGRRPPRAGRPLCQADPQPGKAARRSLEPDPAQTGPRPARAAGMSEARKGPDEAEESQYDSGIESLRSLRSLPESTSAPASGPSDGSPQPCTHPPGPVKEPQEKEDADGERADSTYGSSSLTYTLSLLGGPEAEDPAPRLPLPHVGALSPQQLEALTYISEDGDTLVHLAVIHEAPAVLLCCLALLPQEVLDIQNNLYQTALHLAVHLDQPGAVRALVLKGASRALQDRHGDTALHVACQRQHLACARCLLEGRPEPGRGTSHSLDLQLQNWQGLACLHIATLQKNQPLMELLLRNGADIDVQEGTSGKTALHLAVETQERGLVQFLLQAGAQVDARMLNGCTPLHLAAGRGLMGISSTLCKAGADSLLRNVEDETPQDLTEESLVLLPFDDLKISGKLLLCTD
B5: SERPINA5 (protein, UniProt P05154 26-406, looked up)
Plasma serine protease …: EMKKRVEDLHVGATVAPSSRRDFTFDLYRALASAAPSQSIFFSPVSISMSLAMLSLGAGSSTKMQILEGLGLNLQKSSEKELHRGFQQLLQELNQPRDGFQLSLGNALFTDLVVDLQDTFVSAMKTLYLADTFPTNFRDSAGAMKQINDYVAKQTKGKIVDLLKNLDSNAVVIMVNYIFFKAKWETSFNHKGTQEQDFYVTSETVVRVPMMSREDQYHYLLDRNLSCRVVGVPYQGNATALFILPSEGKMQQVENGLSEKTLRKWLKMFKKRQLELYLPKFSIEGSYQLEKVLPSLGISNVFTSHADLSGISNHSNIQVSEMVHKAVVEVDESGTRAAAATGTIFTFRSARLNSQRLVFNRPFLMFIVDNNILFLGKVNRP
B6: PVR (protein, UniProt P15151 21-417, looked up)
Poliovirus receptor: WPPPGTGDVVVQAPTQVPGFLGDSVTLPCYLQVPNMEVTHVSQLTWARHGESGSMAVFHQTQGPSYSESKRLEFVAARLGAELRNASLRMFGLRVEDEGNYTCLFVTFPQGSRSVDIWLRVLAKPQNTAEVQKVQLTGEPVPMARCVSTGGRPPAQITWHSDLGGMPNTSQVPGFLSGTVTVTSLWILVPSSQVDGKNVTCKVEHESFEKPQLLTVNLTVYYPPEVSISGYDNNWYLGQNEATLTCDARSNPEPTGYNWSTTMGPLPPFAVAQGAQLLIRPVDKPINTTLICNVTNALGARQAELTVQVKEGPPSEHSGISRNAIIFLVLGILVFLILLGIGIYFYWSKCSREVLWHCHLCPSSTEHASASANGHVSYSAVSRENSSSQDPQTEGTR
B7: CST5 (protein, UniProt P28325 21-142, looked up)
Cystatin-D: GSASAQSRTLAGGIHATDLNDKSVQCALDFAISEYNKVINKDEYYSRPLQVMAAYQQIVGGVNYYFNVKFGRTTCTKSQPNLDNCPFNDQPKLKEEEFCSFQINEVPWEDKISILNYKCRKV
B8: ST3GAL1 (protein, UniProt Q11201 1-340, looked up)
CMP-N-acetylneuraminate-beta-g …: MVTLRKRTLKVLTFLVLFIFLTSFFLNYSHTMVATTWFPKQMVLELSENLKRLIKHRPCTCTHCIGQRKLSAWFDERFNQTMQPLLTAQNALLEDDTYRWWLRLQREKKPNNLNDTIKELFRVVPGNVDPMLEKRSVGCRRCAVVGNSGNLRESSYGPEIDSHDFVLRMNKAPTAGFEADVGTKTTHHLVYPESFRELGDNVSMILVPFKTIDLEWVVSAITTGTISHTYIPVPAKIRVKQDKILIYHPAFIKYVFDNWLQGHGRYPSTGILSVIFSMHVCDEVDLYGFGADSKGNWHHYWENNPSAGAFRKTGVHDADFESNVTATLASINKIRIFKGR
B9: MEPE (protein, UniProt Q9NQ76 18-525, looked up)
Matrix extracellular …: PTFQPQTEKTKQSCVEEQRQEEKNKDNIGFHHLGKRINQELSSKENIVQERKKDLSLSEASENKGSSKSQNYFTNRQRLNKEYSISNKENTHNGLRMSIYPKSTGNKGFEDGDDAISKLHDQEEYGAALIRNNMQHIMGPVTAIKLLGEENKENTPRNVLNIIPASMNYAKAHSKDKKKPQRDSQAQKSPVKSKSTHRIQHNIDYLKHLSKVKKIPSDFEGSGYTDLQERGDNDISPFSGDGQPFKDIPGKGEATGPDLEGKDIQTGFAGPSEAESTHLDTKKPGYNEIPEREENGGNTIGTRDETAKEADAVDVSLVEGSNDIMGSTNFKELPGREGNRVDAGSQNAHQGKVEFHYPPAPSKEKRKEGSSDAAESTNYNEIPKNGKGSTRKGVDHSNRNQATLNEKQRFPSKGKSQGLPIPSRGLDNEIKNEMDSFNGPSHENIITHGRKYHYVPHRQNNSTRNKGMPQGKGSWGRQPHSNRRFSSRRRDDSSESSDSGSSSESDGD
B10: hOSCAR (protein, UniProt Q8IYS5 19-282, looked up)
Osteoclast-associated …: DITPSVPPASYHPKPWLGAQPATVVTPGVNVTLRCRAPQPAWRFGLFKPGEIAPLLFRDVSSELAEFFLEEVTPAQGGIYRCCYRRPDWGPGVWSQPSDVLELLVTEELPRPSLVALPGPVVGPGANVSLRCAGRLRNMSFVLYREGVAAPLQYRHSAQPWADFTLLGARAPGTYSCYYHTPSAPYVLSQRSEVLVISWEGEGPEARPASSAPGMQAPGPPPSDPGAQAPSLSSFRPRGLVLQPLLPQTQDSWDPAPPPSDPGV
B11: LAT (protein, UniProt O43561 1-262, looked up)
Linker for activation of …: MEEAILVPCVLGLLLLPILAMLMALCVHCHRLPGSYDSTSSDSLYPRGIQFKRPHTVAPWPPAYPPVTSYPPLSQPDLLPIPRSPQPLGGSHRTPSSRRDSDGANSVASYENEGASGIRGAQAGWGVWGPSWTRLTPVSLPPEPACEDADEDEDDYHNPGYLVVLPDSTPATSTAAPSAPALSTPGIRDSAFSMESIDDYVNVPESGESAEASLDGSREYVNVSQELHPGAAKTEPAALSSQEAEEVEEEGAPDYENLQELN

System: plasma proteins
Test: Plasma proteins modulated between baseline and day 28 in responders (CR, VGPR, PR; n = 19), Example 6 (Table 13)
Format: in vivo, human
Details: plasma protein (OLINK NPX); responders (CR, VGPR, PR; n = 19); itacitinib 200 mg or 300 mg QD with corticosteroids; day 28 vs baseline
How it was run: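 Longitudinal comparison, day 28 versus baseline, with steroid-naive (N=10) and steroid-refractory (N=18) patients combined. Proteins measured by OLINK proximity extension, log2 normalized protein expression. Differences tested by t tests, ANOVA, Pearson correlation, P<0.05 significant.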

Molecule | Fold Change, Decreased Expression from Baseline to Day 28 | Fold Change, Increased Expression from Baseline to Day 28
B1 | −1.4794 | 
B2 |  | 1.1653
B3 | −1.5277 | 
B4 | −1.2885 | 
B5 |  | 1.2683
B6 |  | 1.1964
B7 |  | 1.3521
B8 |  | 1.3415
B9 | −1.4941 | 
B10 | −1.2603 | 
B11 | −2.049 | 
